{
  "source": "paper PMC2917178",
  "about": "(Biochemistry, 2010)",
  "key": {"Esa1": {"tested_on": "Esa1", "conditions": "E338Q vs wildtype Esa1, ref [35]; cited from earlier work"}, "[1]": {"biological_target": "Rtt109 D288N (with Vps75) (Saccharomyces cerevisiae, UniProt P53853+Q07794, D288N)", "sequence (P53853 whole entry, one chain of several)": "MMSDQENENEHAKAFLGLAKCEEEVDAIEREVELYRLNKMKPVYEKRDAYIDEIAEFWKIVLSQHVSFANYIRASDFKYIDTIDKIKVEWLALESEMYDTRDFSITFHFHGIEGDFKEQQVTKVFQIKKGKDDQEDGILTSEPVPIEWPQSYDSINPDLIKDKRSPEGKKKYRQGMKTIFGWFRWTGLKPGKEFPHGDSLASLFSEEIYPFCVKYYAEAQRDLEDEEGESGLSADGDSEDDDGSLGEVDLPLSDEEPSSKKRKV", "assay_type": "biochemical, yeast (Saccharomyces cerevisiae)"}, "[2]": {"biological_target": "T1, Rtt109 D287A/D288A (with Vps75) (Saccharomyces cerevisiae, UniProt P53853+Q07794, D287A/D288A)", "T1 sequence (P53853 whole entry, one chain of several)": "as above", "assay_type": "biochemical, yeast (Saccharomyces cerevisiae)", "conditions": "H3 peptide saturation"}, "[3]": {"biological_target": "T1, Rtt109 D287A/D288A (with Vps75)", "assay_type": "biochemical, yeast (Saccharomyces cerevisiae)"}, "[4]": {"biological_target": "Rtt109 D287N (with Vps75) (Saccharomyces cerevisiae, UniProt P53853+Q07794, D287N)", "sequence (P53853 whole entry, one chain of several)": "as above", "assay_type": "biochemical, yeast (Saccharomyces cerevisiae)", "conditions": "H3 peptide saturation"}},
  "note": "“And” between values parts separate entries of the source, which are not always exact repeats. Identical values can stand only once.",
  "data": [
    {"molecule": "E338Q: Esa1 with mutation of the general base catalyst Glu-338 (protein, UniProt Q08649 1-445, looked up, variant E338Q) Histone acetyltransferase ESA1: MSHDGKEEPGIAKKINSVDDIIIKCQCWVQKNDEERLAEILSINTRKAPPKFYVHYVNYNKRLDEWITTDRINLDKEVLYPKLKATDEDNKKQKKKKATNTSETPQDSLQDGVDGFSRENTDVMDLDNLNVQGIKDENISHEDEIKKLRTSGSMTQNPHEVARVRNLNRIIMGKYEIEPWYFSPYPIELTDEDFIYIDDFTLQYFGSKKQYERYRKKCTLRHPPGNEIYRDDYVSFFEIDGRKQRTWCRNLCLLSKLFLDHKTLYYDVDPFLFYCMTRRDELGHHLVGYFSKEKESADGYNVACILTLPQYQRMGYGKLLIEFSYELSKKENKVGSPQKPLSDLGLLSYRAYWSDTLITLLVEHQKEITIDEISSMTSMTTTDILHTAKTLNILRYYKGQHIIFLNEDILDRYNRLKAKKRRTIDPNRLIWKPPVFTASQLRFAW", "values": [
      {"measurement": "upward shift of pKa of ionizable group", "setting": "Esa1", "result": 1.4, "unit": "pH-units"}
    ]},
    {"molecule": "D288N: single point mutant of Rtt109 (protein, UniProt Q07794 1-436, looked up, variant D288N) Histone acetyltransferase …: MSLNDFLSSVLPVSEQFEYLSLQSIPLETHAVVTPNKDDKRVPKSTIKTQHFFSLFHQGKVFFSLEVYVYVTLWDEADAERLIFVSKADTNGYCNTRVSVRDITKIILEFILSIDPNYYLQKVKPAIRSYKKISPELISAASTPARTLRILARRLKQSGSTVLKEIESPRFQQDLYLSFTCPREILTKICLFTRPASQYLFPDSSKNSKKHILNGEELMKWWGFILDRLLIECFQNDTQAKLRIPGEDPARVRSYLRGMKYPLWQVGDIFTSKENSLAVYNIPLFPDNPKARFIHQLAEEDRLLKVSLSSFWIELQERQEFKLSVTSSVMGISGYSLATPSLFPSSADVIVPKSRKQFRAIKKYITGEEYDTEEGAIEAFTNIRDFLLLRMATNLQSLTGKREHRERNQPVPASNINTLAITMLKPRKKAKALPKT", "values": [
      {"measurement": "decrease in kcat/Km for AcCoA", "setting": "[1]; AcCoA", "result": 1000, "unit": "fold"},
      {"measurement": "decrease of kcat/Km for AcCoA versus wildtype", "setting": "[1]; AcCoA", "result": "~3 orders of magnitude"},
      {"measurement": "increase in Km for AcCoA versus wildtype", "setting": "[1]; AcCoA saturation", "result": "~16", "unit": "fold"},
      {"measurement": "decrease of kcat versus wildtype", "setting": "[1]; H3 peptide saturation", "result": "~50 fold and 50-100 fold"}
    ]},
    {"molecule": "D287A/D288A: double point mutant of Rtt109 (protein, UniProt Q07794 1-436, looked up, variant D287A D288A) Histone acetyltransferase …: MSLNDFLSSVLPVSEQFEYLSLQSIPLETHAVVTPNKDDKRVPKSTIKTQHFFSLFHQGKVFFSLEVYVYVTLWDEADAERLIFVSKADTNGYCNTRVSVRDITKIILEFILSIDPNYYLQKVKPAIRSYKKISPELISAASTPARTLRILARRLKQSGSTVLKEIESPRFQQDLYLSFTCPREILTKICLFTRPASQYLFPDSSKNSKKHILNGEELMKWWGFILDRLLIECFQNDTQAKLRIPGEDPARVRSYLRGMKYPLWQVGDIFTSKENSLAVYNIPLFPAAPKARFIHQLAEEDRLLKVSLSSFWIELQERQEFKLSVTSSVMGISGYSLATPSLFPSSADVIVPKSRKQFRAIKKYITGEEYDTEEGAIEAFTNIRDFLLLRMATNLQSLTGKREHRERNQPVPASNINTLAITMLKPRKKAKALPKT", "values": [
      {"measurement": "decrease of kcat versus wildtype", "setting": "[2]", "result": "~100 fold and 50-100 fold"},
      {"measurement": "downward shift of apparent pKa versus wildtype", "setting": "[3]; D287A/D288A kcat pH profile", "result": "~1", "unit": "pH unit"},
      {"measurement": "pKa from kcat pH profile", "setting": "[3]; D287A/D288A, ATE buffer, pH 7-9, 25 °C, 400 μM H3 peptide, 60 μM AcCoA, twice in duplicate, Eq. 11", "result": "7.5 ± 0.1"}
    ]},
    {"molecule": "D287N: single point mutant of Rtt109 (protein, UniProt Q07794 1-436, looked up, variant D287N) Histone acetyltransferase …: MSLNDFLSSVLPVSEQFEYLSLQSIPLETHAVVTPNKDDKRVPKSTIKTQHFFSLFHQGKVFFSLEVYVYVTLWDEADAERLIFVSKADTNGYCNTRVSVRDITKIILEFILSIDPNYYLQKVKPAIRSYKKISPELISAASTPARTLRILARRLKQSGSTVLKEIESPRFQQDLYLSFTCPREILTKICLFTRPASQYLFPDSSKNSKKHILNGEELMKWWGFILDRLLIECFQNDTQAKLRIPGEDPARVRSYLRGMKYPLWQVGDIFTSKENSLAVYNIPLFPNDPKARFIHQLAEEDRLLKVSLSSFWIELQERQEFKLSVTSSVMGISGYSLATPSLFPSSADVIVPKSRKQFRAIKKYITGEEYDTEEGAIEAFTNIRDFLLLRMATNLQSLTGKREHRERNQPVPASNINTLAITMLKPRKKAKALPKT", "values": [
      {"measurement": "decrease in activity (kcat) versus wildtype", "setting": "[4]", "result": "~10", "unit": "fold"}
    ]}
  ]
}
